Assays:
[1] = tested on: Saccharomyces cerevisiae; test: protein stability index of tFT-peptide fusion in deletion strain of DAS1 (PSI (0-1 scale)); higher = more stable (slower turnover)
Experimental: (§1)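 MPS profiling in S. cerevisiae of two library types built from selected 12-aa C-degron peptides (IN1, IN2, LN1, LN3, VN2, R1-R5, W1-W3, Atg1 and Rpa12 C-termini): saturation mutagenesis libraries and C-terminal +1 capping libraries (13 aa). Each peptide is fused to the C-terminus of a sfGFP-mCherry timer, after a GGGS linker. Cells are FACS-sorted into 8 mCherry/sfGFP bins and sequenced. PSI runs from 0 (unstable) to 1 (stable), measured once in wild type and in the das1Δ or doa10Δ background.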

[2] = tested on: Saccharomyces cerevisiae; test: protein stability index of tFT-peptide fusion in wild type (PSI (0-1 scale)); higher = more stable (slower turnover); conditions: genetic background: wild type
Experimental: as §1
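Wherever protein stability index of tFT-peptide fusion in deletion strain of DAS1 is given: PSI is a weighted mean of each variant's read distribution over the sorted stability bins, computed only for variants having over 10 reads in total.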
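Wherever protein stability index of tFT-peptide fusion in wild type is given: PSI derived as read-weighted mean over the 8 sorting bins, only variants exceeding 10 total reads kept, mCherry placed adjacent to the peptide and sfGFP distal.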

| Sequence | protein stability index [1] | protein stability index [2] |
| --- | --- | --- |
| LVVYCSCVACIN | 0.0283 | 0.0182 |
| LVVYLQCVACIN | 0.0353 | 0.0274 |
| LVVYLSAVACIN | 0.0365 | 0.0153 |
| LVVYLSCSACIN | 0.0361 | 0.0177 |
| LVVYLSCVACDN | 0.272 | 0.249 |
| LVVYLSCVACIH | 0.0535 | 0.0123 |
| LVVYLSCVACIT | 0.0345 | 0.0143 |
| LVVYLSCVACKN | 0.0769 | 0.034 |
| LVVYLSCVADIN | 0.168 | 0.108 |
| LVVYLSCVAGIN | 0.154 | 0.13 |
| LVVYLSCVANIN | 0.0788 | 0.0173 |
| LVVYLSCVAQIN | 0.0252 | 0.014 |
| LVVYLSCVKCIN | 0.319 | 0.146 |
| LVVYLSEVACIN | 0.286 | 0.264 |
| LVVYLTCVACIN | 0.0371 | 0.0129 |
| LVVYLYCVACIN | 0.0269 | 0.0123 |
| MDKRNHLIKLLN | 0.702 | 0.111 |
| MKILRQKMNHQN | 0.66 | 0.163 |
| MRGAVGGWRLVG | 0.653 | 0.146 |
| MRWRVGLWRGAS | 0.727 | 0.143 |
| PCKRNHLIKLLN | 0.614 | 0.112 |
| PCLAASFWRVVG | 0.68 | 0.128 |
| PDKCNHLIKLLN | 0.586 | 0.209 |

| Sequence | protein stability index [1] | protein stability index [2] |
| --- | --- | --- |
| PDKQNHLIKLLN | 0.593 | 0.189 |
| PDKRCHLIKLLN | 0.596 | 0.0642 |
| PDKRNHAIKLLN | 0.603 | 0.186 |
| PDKRNHDIKLLN | 0.606 | 0.407 |
| PDKRNHLIKFLN | 0.583 | 0.112 |
| PDKRNHLIKLKN | 0.599 | 0.273 |
| PDKRNHLIKLLM | 0.586 | 0.112 |
| PDKRNHLIKLLV | 0.618 | 0.118 |
| PDKRNHLIKLLY | 0.587 | 0.328 |
| PDKRNHLIKLYN | 0.599 | 0.343 |
| PDKSNHLIKLLN | 0.652 | 0.157 |
| PIKRNHLIKLLN | 0.622 | 0.157 |
| PNLAASFWRVVG | 0.694 | 0.144 |
| PQLAASFWRVVG | 0.7 | 0.152 |
| PRGAVGGWRLVG | 0.671 | 0.169 |
| PRLAASFWRVVG | 0.691 | 0.197 |
| PSIAASFWRVVG | 0.695 | 0.143 |
| PSLAACFWRVVG | 0.675 | 0.141 |
| PSLAAHFWRVVG | 0.694 | 0.155 |
| PSLAAIFWRVVG | 0.645 | 0.138 |
| PSLAASFPRVVG | 0.66 | 0.659 |
| PSLAASFSRVVG | 0.631 | 0.665 |
| PSLAASFWPVVG | 0.706 | 0.656 |

| Sequence | protein stability index [1] | protein stability index [2] |
| --- | --- | --- |
| PSLAASFWRVAG | 0.671 | 0.256 |
| PSLAASFWRVVC | 0.679 | 0.119 |
| PSLAASFWRVVD | 0.698 | 0.48 |
| PSLAASFWRVVGC | 0.685 | 0.664 |
| PSLAASFWRVVGY | 0.684 | 0.658 |
| PSLAASFWRVVS | 0.641 | 0.15 |
| PSLAASFWRVVV | 0.687 | 0.144 |
| PSLAASFWVVVG | 0.554 | 0.249 |
| PSLAASWWRVVG | 0.693 | 0.179 |
| PSLAAVFWRVVG | 0.665 | 0.146 |
| PSLAKSFWRVVG | 0.702 | 0.375 |
| PSLAVSFWRVVG | 0.673 | 0.137 |
| PSLGASFWRVVG | 0.696 | 0.207 |
| PSLSASFWRVVG | 0.692 | 0.176 |
| PSVAASFWRVVG | 0.679 | 0.142 |
| PTSCGYKFRTNN | 0.677 | 0.219 |
| PVKRNHLIKLLN | 0.608 | 0.129 |
| PWKRNHLIKLLN | 0.606 | 0.0786 |
| QKILRQKMNHQN | 0.678 | 0.152 |
| QTSCGYKFRTNN | 0.673 | 0.206 |
| RFIQPLPVQFLN | 0.54 | 0.0529 |
| RLCQPLPVQFLN | 0.612 | 0.0327 |
| RLIQGLPVQFLN | 0.651 | 0.0788 |

| Sequence | protein stability index [1] | protein stability index [2] |
| --- | --- | --- |
| RLIQMLPVQFLN | 0.626 | 0.0223 |
| RLIQPCPVQFLN | 0.612 | 0.0722 |
| RLIQPDPVQFLN | 0.565 | 0.216 |
| RLIQPLKVQFLN | 0.805 | 0.054 |
| RLIQPLPIQFLN | 0.593 | 0.0384 |
| RLIQPLPKQFLN | 0.559 | 0.103 |
| RLIQPLPMQFLN | 0.636 | 0.0399 |
| RLIQPLPVQFEN | 0.603 | 0.627 |
| RLIQPLPVQFHN | 0.616 | 0.24 |
| RLIQPLPVQFLA | 0.589 | 0.139 |
| RLIQPLPVQFLF | 0.779 | 0.247 |
| RLIQPLPVQFLL | 0.586 | 0.2 |
| RLIQPLPVQFTN | 0.723 | 0.377 |
| RLIQPLPVQFYN | 0.783 | 0.0309 |
| RLIQPLPVQILN | 0.774 | 0.309 |
| RLIQPLPVQSLN | 0.612 | 0.457 |
| RLIQPLPVTFLN | 0.7 | 0.0559 |
| RLIQPLYVQFLN | 0.629 | 0.0572 |
| RLIQPYPVQFLN | 0.578 | 0.0613 |
| SKHKKGQKQKIN | 0.625 | 0.153 |
